# Reference: patent US20180128830A1, “DETECTION OF HUMAN CYTOMEGALOVIRUS IN BREAST CANCER” (priority 2015, published 2018)
# B1: cmvIL-10 (protein)
# chain: ATTTTIKNTKPQCRPEDYATRLQDLRVTFHRVKPTLQREDDYSVWLDGTVVKGCWGCSVMDWLLRRYLEIVFPAGDHVYPGLKTELHSMRSTLESIYKDMRQCPLLGCGDKSVISRLSQEAERKSDNGTRKGLSELDTLFSRLEEYLHSRK
# Legend:
# Assay type in all cases: cell-based, human
# MDA-MB-231 cells [1] = assay: Apoptosis, Annexin V-FITC flow cytometry; details: 100 ng/ml cmvIL-10 plus 100 μM etoposide, 48 hrs
# Procedure: (§1) Cells were seeded into 96-well dishes at a density of 1×10^4 cell per well in complete medium with varying doses of cmvIL-10, and then cell viability measured at the indicated time points using the Cell Titer Glo Assay kit according to manufacturer's instructions (Promega). DNA synthesis was measured in cells prepared in the same way using the BrdU Cell Proliferation ELISA Kit (Roche, Basel, Switzerland). For experiments using inhibitors, cells were cultivated in 96-well dishes as above with a final concentration of 10 μM inhibitor and BrdU incorporation evaluated after 72 hrs. For cell counts, cells were seeded into 6-well plates at a density of 2×10^5 cells per well, harvested via trypsinization, and counted using a hemacytometer at the indicated time points. The TACS Annexin V-FITC Detection Kit (Trevigen, Gaithersburg, Md.) was used to stain cells harvested from 70% confluent T75 flasks that had been treated with 100 μM etoposide for 48 hrs in the presence or absence of 100 ng/ml cmvIL-10. Cells were then analyzed via flow cytometry to detect fluorescence. For viability assays, Cell Titer Glo reagent was utilized to quantify cells that had been seeded into 96-well dishes at a density of 1×10^4 cell per well in complete medium with varying doses of etoposide in the presence or absence of 100 ng/ml cmvIL-10 as indicated
# MDA-MB-231 cells [2] = assay: Matrigel invasion toward EGF; details: 100 ng/ml, 22 hours
# Procedure: Transwell migration was monitored using 96-well BD Fluoroblock plates with 8 μm filters (Corning, Inc., Corning, N.Y.). Cells were harvested and suspended at density of 2.0×10^6 cells/ml in migration media (L-15+1% FBS), and a volume of 75 μl cell suspension was placed on top of the filter inserts. Where indicated, IL-10R neutralizing antibody was added at a concentration of 30 μg/ml. […] After 5 hrs at 37° C., cells that traversed the filter and entered the lower chamber were quantified by the addition of Cell Titer Glo (Promega, Madison, Wis.) using a Turner Veritas luminometer. For invasion, 96-well matrigel-coated BD Fluoroblock transwell invasion plates (Corning) were used. Invasion plates were re-hydrated with warm media at 37° C. for 3 hrs and then 75 μl cell suspension loaded onto the hydrated filters as described above. Where indicated, 10 μM Stat3 inhibitor was included with cells in the top chamber; cmvIL-10, hIL-10 or conditioned medium was present in both chambers. […] At harvest, cells that had degraded the matrigel and entered the lower chamber were quantified by the addition of Cell Titer Glo as above.
# MDA-MB-231 cells [3] = assay: DNA synthesis, BrdU Cell Proliferation ELISA; details: 100 ng/ml, vs control
# Procedure: as §1
# MDA-MB-231 cells [4] = assay: Cell proliferation, Cell Titer Glo
# Procedure: as §1
# MMP-3 = MMP-3 western blotting and zymography; details: over time
# Procedure: Confluent T-75 flasks of MDA-MB-231 cells were treated with 10 ng/mL cmvIL-10 (R&D systems) for the indicated times, then scraped and harvested into cell lysis buffer (150 mM NaCl, 20 mM HEPES, 0.5% Triton-X-100, 1.0 mM NaOV4, 1.0 mM EDTA, 0.1% NaN3) containing 1× protease inhibitors (Calbiochem). Cell lysates were clarified via centrifugation, heated at 70° C. for 10 min in reducing buffer, and the proteins separated on a 4-12% Tris-Base SDS-PAGE gel (Life Technologies, Grand Island, N.Y.). After transfer to nitrocellulose, the membrane was incubated in blocking solution (5% milk+TBS) for 1 hr at room and then probed with primary antibody: 1:1000 dilution for MMP-3 or MTSS-1 antibodies (Santa Cruz), or MAPK antiserum (Cell Signaling Tech, Danvers, Mass.), in blocking solution overnight, oscillating on a platform rocker at 4.0° C. After three washes, the membranes were incubated with a 1:2000 dilution of appropriate AP-conjugated secondary antibody on a platform rocker at room temperature for 1 hr. Protein bands were detected using western blue stabilized AP substrate (Promega, Madison, Wis.). For zymography, cell lysates were denatured in SDS buffer under non-reducing conditions without heat, and run on a 4-16% Zymogram gel using Tris-Glycine SDS running buffer according to manufacturer's instructions. […]
molecule,measurement,setting,value
B1,cells stained positive for Annexin V,MDA-MB-231 cells [1],14.8%
same,invasion through matrigel compared with hIL-10,MDA-MB-231 cells [2],significantly greater extent than hIL-10
same,invasion through matrigel toward EGF,MDA-MB-231 cells [2],strong enhancer of cell invasion
same,rate of DNA synthesis (BrdU incorporation),MDA-MB-231 cells [3],significantly higher
same,"cell growth (cell viability, RLU)","MDA-MB-231 cells [4]; 100 ng/ml, 72 hrs",significantly higher cell growth than control cultures
same,"cell growth (cell viability, RLU)",MDA-MB-231 cells [4]; increasing doses of cmvIL-10,greater growth than control cells
same,"amount of active MMP-3 enzyme (zymography, casein digestion)",MMP-3,also increased
same,total MMP-3 protein (western blot),MMP-3,increase in total MMP-3 protein
